The results in this text go back to publication PMC10878280 (Journal of Virology, 2024).

In this assay the target is neuraminidase (NA) of A/California/04/2009 (Influenza A virus A/California/04/2009 …, UniProt C3W5S3, strain). Nature of the assay: fluorescence imaging with FRAP of labelled antibody on transfected cells. The conditions noted are these: one partner purified.

B1: CD6 IgG (antibody, V domains shown)
VH: QVKLQESGGGLVQPKGSLKLSCAASGFTFNTYAMNWVRQAPGKGLEWVARIRSKSNNYATFYADSVKDRFTISRDDSQSMLYLQMHNLKTDDTAMYYCVRPSIYYYASGYLDVWGAGTTVTVSS
VL: QIVLSQSPAILSASPGEKVTMTCRTSSSVSYMHWYQQKPGSSPKPWIYATSNLASGVPFRFSGSGSGTSYSLTISRVEAEDAATYYCQQWNSNPPTFGGGTKLEIK
notes: not shown: ybbR, C-terminal, kept; copies: 2 + 2
Regarding B1, the binding result is given as “binds”.
